± gives the uncertainty stated by the source.
Assay: self-splicing fitness, log relative to wild type (ln ratio); higher = more splicing; Tetrahymena group I intron in knt gene, E. coli kanamycin selection, DiMSum; sequences stand for … in CUCUCU…GGAGGGAAAAGUUAUCAGGCAUGCACCUGGUAGCUAGUCUUUAAACCAAUAGAUUGCAUCGGUUUAAAAGGCAAGACCGUCAAAUUGCGGGAAAGGGGUCAACAGCCGUUCAGUACCAAGUCUCAGGGGAAACUUUGAGAUGGCCUUGCAAAGGGUAUGGUAAUAAGCUGACGGACAUGGUCCUAACCACGCAGCCAAGUCCUAAGUCAACAGAUCUUCUGUUGAUAUGGAUGCAGUUCACAGACUAAAUGUCGGUCGGGGAAGAUGUAUUCUUCUCAUAAGAUAUAGUCGGACCUCUCCUUAAUGGGAGCUAGCGGAUGAAGUGAUGCAACACUGGAGCCGCUGGGAACUAAUUUGUAUGCGAAAGUAUAUUGAUUAGUUUUGGAGUACUCGUGGUCG
Method in brief: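 Six replicate transformations of E. coli BL21(DE3) with a pET-22b(+) library were grown overnight at 37°C or 30°C. The library randomised all eight P1ex-region intron nucleotides, the intron lying in the knt kanamycin-resistance gene, and plates were LB agar with or without 25 μg/mL kanamycin plus 100 μg/mL carbenicillin, 50 μM IPTG and 0.2% rhamnose. Pooled colonies were amplicon-sequenced on an Illumina HiSeq 2500, and fitness is the DiMSum error-weighted combination of wild-type-normalised replicate fold changes, kanamycin versus none.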

Sequence	self-splicing fitness (ln) (30 °C)	self-splicing fitness (ln) (37 °C)
CUAAAGCAAUAUUACGCCCG	0.465 ± 0.11	-0.0373 ± 0.12
CUAAAGCAAUAUUACGCCGA	-3.46 ± 0.24	-2.42 ± 0.25
CUAAAGCAAUAUUACGCCUA	-3.27 ± 0.23	–
CUAAAGCAAUAUUACGCGUU	-3.08 ± 0.13	-2.67 ± 0.27
CUAAAGCAAUAUUACGCUCU	-2.94 ± 0.41	–
CUAAAGCAAUAUUACGGAGA	-2.83 ± 0.16	-2.79 ± 0.29
CUAAAGCAAUAUUACGGCCA	-3.21 ± 0.31	-2.08 ± 0.4
CUAAAGCAAUAUUACGGCCG	0.821 ± 0.14	0.575 ± 0.21
CUAAAGCAAUAUUACGGCUG	0.0357 ± 0.069	-0.0492 ± 0.089
CUAAAGCAAUAUUACGUACC	–	-2.03 ± 0.46
CUAAAGCAAUAUUACGUCGG	-0.261 ± 0.061	-0.189 ± 0.078
CUAAAGCAAUAUUACGUCUA	-4.21 ± 0.27	-2.2 ± 0.22
CUAAAGCAAUAUUACGUGUG	-0.323 ± 0.049	0.387 ± 0.06
CUAAAGCAAUAUUACGUUCU	-4.08 ± 0.24	-3.07 ± 0.26
CUACAGCAAUAUUACGAAGC	-3.61 ± 0.24	-2.85 ± 0.25
CUACAGCAAUAUUACGAAGG	-1.22 ± 0.1	-1.49 ± 0.14
CUACAGCAAUAUUACGAAGU	-4.24 ± 0.29	-2.52 ± 0.19
CUACAGCAAUAUUACGAAUC	-4.32 ± 0.23	-2.61 ± 0.23
CUACAGCAAUAUUACGACGU	-4.63 ± 0.23	-3.03 ± 0.2
CUACAGCAAUAUUACGAGGG	-3.38 ± 0.19	-2.59 ± 0.2
CUACAGCAAUAUUACGAUGC	-3.88 ± 0.39	-2.81 ± 0.2
CUACAGCAAUAUUACGCAGU	-3.78 ± 0.24	-2.32 ± 0.22
CUACAGCAAUAUUACGCCUU	-2.27 ± 0.2	-1.4 ± 0.31
CUACAGCAAUAUUACGCGAG	-2.9 ± 0.098	-1.74 ± 0.1

Sequence	self-splicing fitness (ln) (30 °C)	self-splicing fitness (ln) (37 °C)
CUACAGCAAUAUUACGCGCA	-3.72 ± 0.22	-2.12 ± 0.19
CUACAGCAAUAUUACGCGGC	-2.27 ± 0.15	-0.807 ± 0.14
CUACAGCAAUAUUACGCUCG	-1.49 ± 0.089	-1.46 ± 0.13
CUACAGCAAUAUUACGGAGG	-2.21 ± 0.087	-1.33 ± 0.11
CUACAGCAAUAUUACGGAUU	-3.46 ± 0.14	-2.5 ± 0.21
CUACAGCAAUAUUACGGCUG	-3.92 ± 0.18	-2.57 ± 0.22
CUACAGCAAUAUUACGGGAU	-2.74 ± 0.15	-2.99 ± 0.27
CUACAGCAAUAUUACGGGCG	-1.2 ± 0.065	-0.108 ± 0.092
CUACAGCAAUAUUACGGUGC	-4.58 ± 0.28	-2 ± 0.17
CUACAGCAAUAUUACGGUGU	-3.23 ± 0.13	-2.49 ± 0.14
CUACAGCAAUAUUACGUACA	-1.78 ± 0.17	-1.29 ± 0.2
CUACAGCAAUAUUACGUCCU	-3.25 ± 0.18	-2.38 ± 0.17
CUACAGCAAUAUUACGUCUG	-1.77 ± 0.1	-1.45 ± 0.13
CUACAGCAAUAUUACGUUCA	-2.98 ± 0.19	-0.865 ± 0.098
CUACAGCAAUAUUACGUUGC	-3.67 ± 0.23	-2.82 ± 0.21
CUAGAGCAAUAUUACGAAUG	0.298 ± 0.095	0.533 ± 0.11
CUAGAGCAAUAUUACGACCU	-3.67 ± 0.27	-2.99 ± 0.33
CUAGAGCAAUAUUACGAGUA	-3.71 ± 0.23	-1.17 ± 0.17
CUAGAGCAAUAUUACGAUAU	-3.18 ± 0.27	-2.09 ± 0.25
CUAGAGCAAUAUUACGAUGA	-1.86 ± 0.14	-1.12 ± 0.22
CUAGAGCAAUAUUACGAUUG	-0.464 ± 0.071	-0.493 ± 0.077
CUAGAGCAAUAUUACGCACU	-4.52 ± 0.46	-1.99 ± 0.41
CUAGAGCAAUAUUACGCCGG	–	-0.534 ± 0.29
CUAGAGCAAUAUUACGCGCA	-1.95 ± 0.33	-1.21 ± 0.35

Source: the supplement of paper PMC7877785
